Experimental data published in patent publication US5639616, “Isolated nucleic acid encoding a ubiquitous nuclear receptor” (Arch Development Corporation).

T1: rUR DNA-binding domain (UR-DBD) (Rattus norvegicus, UniProt Q62755 SEQ:72-168)
T1 sequence: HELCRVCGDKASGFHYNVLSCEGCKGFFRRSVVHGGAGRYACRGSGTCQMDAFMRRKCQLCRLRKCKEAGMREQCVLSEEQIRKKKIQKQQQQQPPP


Experiments:
[1] = molecular target: human retinoid X receptor alpha (hRXRα) (human) (UniProt P19793)
[2] = molecular target: T1, rUR DNA-binding domain (UR-DBD); assay: EMSA; monomer binding; conditions: tags: His tag, pET15b fusion, E. coli; label: 32P; 4-nt 5' overhangs
Method: (§1) The DNA-binding ability of this domain was tested by gel-shift analyses with a set of oligonucleotides that contained AGGTCA direct repeats with 0 to 6 oligonucleotide spacing (shown above).
(§2) A segment of UR containing the DBD and a few amino acids of the hinge region (rUR amino acid residues 72 to 168) was expressed as a fusion protein using the E. coli expression vector PET15b and purified by affinity (Ni^+2/His-tag) chromatography. The DNA-binding ability of this domain was tested by gel shift analysis with a set of oligonucleotides that contained AGGTCA direct repeats with 0 to 6 oligonucleotide spacing. The UR fusion protein bound to all these direct repeats as a monomer, and optimum spacing for homodimer binding was 4 and 5 nucleotides, which is identical to a retinoic acid receptor response element (RARE). A hinge region peptide antibody super-shifted UR DBD homodimers bound to DR-4 and DR-5. Supershifting of monomer was not observed.

[3] = molecular target: T1, rUR DNA-binding domain (UR-DBD); assay: EMSA; monomer plus homodimer; homodimer best on DR-4 and DR-5, supershifted by hinge antibody; conditions: tags: His tag, pET15b fusion, E. coli; label: 32P; 4-nt 5' overhangs
Method: as §1, §2

[4] = molecular target: T1, rUR DNA-binding domain (UR-DBD); assay: EMSA; monomer plus homodimer; optimum homodimer spacing, supershifted by hinge antibody; conditions: tags: His tag, pET15b fusion, E. coli; label: 32P; 4-nt 5' overhangs
Method: as §1, §2

| Molecule | binding result [2] | further results |
| --- | --- | --- |
| rat ubiquitous nuclear receptor (rUR), full-length |  | CAT activity of a DR-4 CAT reporter in COS-1 cells, absence of 9c-RA [1]: 4 to 5 fold |
| DR-1 (dsDNA) DNA 1: GATCCTCAGGTCAGAGGTCAGAAGCT DNA 2: AGCTTCTGACCTCTGACCTGAGGATC | binds |  |
| DR-6 (dsDNA) DNA 1: GATCCTCAGGTCACCAAGGAGGTCAGAAGCT DNA 2: AGCTTCTGACCTCCTTGGTGACCTGAGGATC | binds |  |
| DR-4 (dsDNA) DNA 1: GATCCTCAGGTCACAGGAGGTCAGAAGCT DNA 2: AGCTTCTGACCTCCTGTGACCTGAGGATC |  | binding result [3]: binds |
| DR-2 (dsDNA) DNA 1: GATCCTCAGGTCAAGAGGTCAGAAGCT DNA 2: AGCTTCTGACCTCTTGACCTGAGGATC | binds |  |
| DR-3 (dsDNA) DNA 1: GATCCTCAGGTCAAGGAGGTCAGAAGCT DNA 2: AGCTTCTGACCTCCTTGACCTGAGGATC | binds |  |
| DR-5 (dsDNA) DNA 1: GATCCTCAGGTCACCAGGAGGTCAGAAGCT DNA 2: AGCTTCTGACCTCCTGGTGACCTGAGGATC |  | binding result [4]: binds |
| DR-0 (dsDNA) DNA 1: GATCCTCAGGTCAAGGTCAGAAGCT DNA 2: AGCTTCTGACCTTGACCTGAGGATC | binds |  |
